Measurements published in patent US20030129189A1, “Tumor necrosis factor-gamma” (priority 1994, published 2003).
Like-named read-outs stand apart in the source and are kept apart here. Each block holds one molecule with its values, some of them ahead of it.

Columns and labels:
[1] = system: HUVEC cells; experiment: Induction of TNF-gamma-beta mRNA in HUVEC cells; type: cell-based, human; details: for TNF-gamma-beta mRNA level: stimulated HUVEC cells; for time of peak in expression of TNF-gamma-beta mRNA: after treatment
Procedure: More TNF-gamma-beta mRNA was detected than that of TNF-gamma-alpha using both methods.
Total RNA was isolated from human cell lines and primary cells using TriZOL (Invitrogen). TaqMan was carried out in a 25 μl reaction containing 25 ng of total RNA, 0.6 μM each of gene-specific forward and reverse primers and 0.2 μM of gene-specific fluorescence probe. […] Gene-specific PCR products were measured using an ABI PRISM 7700 Sequence Detection System following the manufacturer's instruction (PE Corp.).

[2] = molecular target: T1, TNF-gamma-beta (Homo sapiens, UniProt O95150); experiment: Inhibition of TNF-gamma-beta activation of NF-κB in 293T cells; type: cell-based
T1 construct: made in house; host or cells: E. coli (untagged) or 293T (FLAG-tagged)
T1 sequence (O95150 72-251): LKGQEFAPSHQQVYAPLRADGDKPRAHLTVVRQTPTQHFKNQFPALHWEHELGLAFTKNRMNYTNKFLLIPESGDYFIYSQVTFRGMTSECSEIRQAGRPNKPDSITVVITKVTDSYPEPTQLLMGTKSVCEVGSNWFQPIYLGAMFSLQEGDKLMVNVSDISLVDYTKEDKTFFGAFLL
Procedure: To avoid spontaneous apoptosis or NF-κB activation accompanied with DR3 overexpression, a limited amount of DR3-expression DNA that by itself minimally activated these pathways was used.
293T cells were transiently transfected using LipofectAMINE and PLUS reagents according to the manufacturer's instruction (Invitrogen). For reporter assays, 293T cells, at 5×10^5 cells/well, were seeded in 6-well plates and transfected with a total of 1 microgram of DNA. pC4 DNA was used as filler DNA. Conditioned supernatant was collected 24 hr post-transfection and assayed for secreted alkaline phosphatase (SEAP) activity using the Phospha-Light™ chemiluminescent reporter gene assay system (Tropix). pCMV-lacZ was used as internal control for transfection efficiency normalization.

[3] = molecular target: T2, full length TNF-gamma-beta on the cell surface (HEK293F stable transfectants; transfected cells) (human, UniProt O95150 1-251); experiment: flow cytometry on HEK293F cells expressing full length TNF-gamma-beta
T2 construct: also called TNF-gamma-beta expressing cells
T2 sequence: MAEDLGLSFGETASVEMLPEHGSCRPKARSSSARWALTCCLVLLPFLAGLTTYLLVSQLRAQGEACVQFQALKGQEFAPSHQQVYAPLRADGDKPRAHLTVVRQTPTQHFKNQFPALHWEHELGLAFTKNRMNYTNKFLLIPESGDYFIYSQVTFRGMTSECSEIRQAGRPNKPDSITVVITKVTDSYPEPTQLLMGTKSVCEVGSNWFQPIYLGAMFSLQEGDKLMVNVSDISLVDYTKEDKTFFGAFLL
Procedure: TR6 has been previously described as a decoy receptor (Pitti et al., Nature 396:699-703 (1998); Yu et al., J. Biol. Chem. 274:13733-6 (1999)) capable of competing with Fas and HveA for binding of FasL and LIGHT, respectively.
One million cells, in 0.1 ml of FACS buffer (PBS, 0.1% BSA, 0.1% NaN₃), were incubated with 0.1-1 microgram of protein or antibody at RT for 15 min. The cells were washed with 3 ml of FACS buffer, reacted with biotinylated primary antibody, and stained with PE-conjugated secondary antibody at RT for 15 min. Cells were then washed again, resuspended in 0.5 microgram/ml of propidium iodide, and live cells were gated and analyzed on a FACScan using the CellQuest software (BD Biosciences).

[4] = molecular target: T3, TNF-gamma-beta (Homo sapiens, UniProt O95150); experiment: Coimmunoprecipitation of TNF-gamma-beta by TNFR-Fc proteins; type: binding
T3 construct: made in house; host or cells: 293T cells, transient transfection
T3 sequence (O95150 72-251 limits assumed): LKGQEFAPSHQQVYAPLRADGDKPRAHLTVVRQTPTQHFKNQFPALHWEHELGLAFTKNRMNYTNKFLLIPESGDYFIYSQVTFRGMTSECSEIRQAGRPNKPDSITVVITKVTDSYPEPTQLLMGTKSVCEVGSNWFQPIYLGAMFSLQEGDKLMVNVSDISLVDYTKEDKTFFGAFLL
From the text: The beads were then precipitated and washed extensively with PBST buffer (PBS, 0.5% Triton X-100) before boiled in SDS-sample buffer. Proteins were resolved on 4-20% Tris-Glycine gels (NOVEX), transferred to nitrocellulose membranes, and blotted with anti-Flag M2 monoclonal antibody (1 microgram/ml, Sigma) andhorseradish peroxidase (HRP)-conjugated goat anti-mouse IgG antibody (0.5 microgram/ml).

[5] = system: CB6F1 mice; experiment: Parent-into-F1 acute graft-versus-host (in vivo MLR) model; parameters: species or system mouse; details: 3 mg/kg/day i.v. for 5 days
Procedure: Briefly, CB6F1 mice were injected with 1.5×10^8 pooled spleen cells of C57BL/6 mice administered intravenously on day 0.
The F1 (CB6F1) of C57BL/6×BALB/c mice (H-2^bxd) were transfused intravenously with 1.5×10^8 spleen cells from C57BL/6 mice (H-2^b) on day 0. […] The spleens of the recipient F1 mice were harvested on day 5, weighed and single cell suspensions prepared for in vitro assays.
Splenocytes from normal and the transfused F1 mice were cultured in triplicate in 96-well flat-bottomed plates (4×10^5 cells/200 microliters/well) for 2-4 days. After removing 100 microliters of supernatant per well on the day of harvest, 10 microliters Alamar Blue (Biosource) was added to each well and the cells cultured for additional 4 h. The cell number in each well was assessed according to OD590 nm minus OD530 nm background, using a CytoFluor apparatus (PerSeptive Biosystems). Cytokines in the culture supernatant were measured with commercial ELISA kits from Endogen or R & D Systems following manufacturer's instructions.

Molecule: bFGF: growth factor stimulus of HUVEC cells [reference compound]
- TNF-gamma-beta mRNA level [1]: did not significantly affect the expression of TNF-gamma-beta

Molecule: CCCCCCCCCCCCCC(=O)O[C@@H]1[C@@H](C)[C@@]2(O)[C@@H](C=C(CO)C[C@]3(O)C(=O)C(C)=C[C@@H]23)[C@@H]2C(C)(C)[C@]12OC(C)=O [PMA, reference compound]
- time of peak in expression of TNF-gamma-beta mRNA [1]: 6 h
- TNF-gamma-beta mRNA level [1]: rapidly induced high levels of TNF-gamma-beta mRNA

B4: Fas-Fc: extracellular domain of Fas (aa 1-169) fused to Fc of human IgG1 (protein)
chain: QVTDINSKGLELRKTVTTVETQNLEGLHHDGQFCHKPCPPGERKARDCTVNGDEPDCVPCQEGKEYTDKAHFSSKCRRCRLCDEGHGLEVEINCTRTQNTKCRCKPNFFCNSTVCEHCDPCTKCEHGIIKECTLTSNTKCKEEG
modifications: left off: a dimerising Fc or GST
notes: extracellular domain of Fas (aa 1-169) fused to Fc of human IgG1
- inhibition of TNF-gamma-beta activation of NF-κB [2]: but not by the addition of Fas-Fc or TNFR1-Fc
- immunoprecipitation of TNF-gamma-beta [4]: could not immunoprecipitate FLAG-TNF-gamma-beta

B6: TACI-Fc: extracellular domain of TACI (aa 1-159) fused to Fc of human IgG1 (protein)
chain: MSGLGRSRRGGRSRVDQEERFPQGLWTGVAMRSCPEEQYWDPLLGTCMSCKTICNHQSQRTCAAFCRSLSCRKEQGKFYDHLLRDCISCASICGQHPKQCAYFCENKLRSPVNLPPELRRQRSGEVENNSDNSGRYQGLEHRGSEASPALPGLKLSADQ
modifications: left off: a dimerising Fc or GST
notes: extracellular domain of TACI (aa 1-159) fused to Fc of human IgG1
- immunoprecipitation of TNF-gamma-beta [4]: could not immunoprecipitate FLAG-TNF-gamma-beta

B8: IFNγ: cytokine stimulus of HUVEC cells (protein, UniProt P01579 24-161, looked up)
Interferon gamma: QDPYVKEAENLKKYFNAGHSDVADNGTLFLGILKNWKEESDRKIMQSQIVSFYFKLFKNFKDDQSIQKSVETIKEDMNVKFFNSNKKKRDDFEKLTNYSVTDLNVQRKAIHELIQVMAELSPAAKTGKRKRSQMLFRG
- TNF-gamma-beta mRNA level [1]: did not significantly affect the expression of TNF-gamma-beta

B9: IL-1α: cytokine stimulus of HUVEC cells (protein, UniProt P01583 113-271, looked up)
Interleukin-1 alpha: SAPFSFLSNVKYNFMRIIKYEFILNDALNQSIIRANDQYLTAAALHNLDEAVKFDMGAYKSSKDDAKITVILRISKTQLYVTAQDEDQPVLLKEMPEIPKTITGSETNLLFFWETHGTKNYFTSVAHPNLFIATKQDYWVCLAGGPPSITDFQILENQA
- time of peak in expression of TNF-gamma-beta mRNA [1]: 6 h
- TNF-gamma-beta mRNA level [1]: rapidly induced high levels of TNF-gamma-beta mRNA

B11: TL5: another TNF family ligand used here as a control (protein, UniProt O43557 83-240, looked up)
Tumor necrosis factor ligand …: LIQERRSHEVNPAAHLTGANSSLTGSGGPLLWETQLGLAFLRGLSYHDGALVVTKAGYYYIYSKVQLGGVGCPLGLASTITHGLYKRTPRYPEELELLVSQQSPCGRATSSSRVWWDSSFLGGVVHLEAGEKVVVRVLDERLVRLRDGTRSYFGAFMV
- IL-2 production vs buffer group [5]: neither TNF-gamma-beta nor TL5 show any significant effect
- IL-12 production vs buffer group [5]: neither TNF-gamma-beta nor TL5 show any significant effect
- spleen weight vs buffer group [5]: no statistically significant difference from buffer group
- spontaneous (ex-vivo) splenocyte proliferation vs buffer group [5]: no statistically significant difference from buffer group
- GM-CSF production vs buffer group ([5]; splenocytes): no statistically significant difference from buffer group
- INF-gamma production vs buffer group ([5]; splenocytes): no statistically significant difference from buffer group

The next lines start with results.

- inhibition of TNF-gamma-beta activation of NF-κB [2]: not able to inhibit
Molecule: TNFR1.Fc: Fc-fusion of TNFR1, control receptor [reference compound]
- inhibition of TNF-gamma-beta activation of NF-κB ([2]; listed as TNFR1-Fc): but not by the addition of Fas-Fc or TNFR1-Fc

- binding result [3]: no binding
B1: TNFR1-Fc (Fc fusion, UniProt P19438 30-211, looked up)
chain: LVPHLGDREKRDSVCPQGKYIHPQNNSICCTKCHKGTYLYNDCPGPGQDTDCRECESGSFTASENHLRHCLSCSKCRKEMGQVEISSCTVDRDTVCGCRKNQYRHYWSENLFQCFNCSLCLNGTVHLSCQEKQNTVCTCHAGFFLRENECVSCSNCKKSLECTKLCLPQIENVKGTEDSGTT
notes: extracellular domain; also called Fc-fusion form of the extracellular domain of TNFR1; not shown: Fc part of the fusion

- binding result [3]: no binding
B2: Fc-fusion form of the extracellular domain of DcR2 (Fc fusion, UniProt Q9UBN6 56-211, looked up)
chain: ATIPRQDEVPQQTVAPQQQRRSLKEEECPAGSHRSEYTGACNPCTEGVDYTIASNNLPSCLLCTVCKSGQTNKSSCTTTRDTVCQCEKGSFQDKNSPEMCRTCRTGCPRGMVKVSNCTPRSDIKCKNESAASSTGKTPAAEETVTTILGMLASPYH
notes: extracellular domain; not shown: Fc part of the fusion

- binding result [3]: no binding
B3: Fc-fusion form of the extracellular domain of OX40 (Fc fusion, UniProt P43489 29-214, looked up)
chain: LHCVGDTYPSNDRCCHECRPGNGMVSRCSRSQNTVCRPCGPGFYNDVVSSKPCKPCTWCNLRSGSERKQLCTATQDTVCRCRAGTQPLDSYKPGVDCAPCPPGHFSPGDNQACKPWTNCTLAGKHTLQPASNSSDAICEDRDPPATQPQETQGPPARPITVQPTEAWPRTSQGPSTRPVEVPGGRA
notes: as for B2

- binding result [3]: no binding
B5: Fc-fusion form of the extracellular domain of RANK (Fc fusion, UniProt Q9Y6Q6 30-212, looked up)
chain: IAPPCTSEKHYEHLGRCCNKCEPGKYMSSKCTTTSDSVCLPCGPDEYLDSWNEEDKCLLHKVCDTGKALVAVVAGNSTTPRRCACTAGYHWSQDCECCRRNTECAPGLGAQHPLQLNKDTVCKPCLAGYFSDAFSSTDKCRPWTNCTFLGKRVEHHGTEKSDAVCSSSLPARKPPNEPHVYLP
notes: as for B2

- binding result [3]: no binding
B7: Fc-fusion form of the extracellular domain of AITR (Fc fusion, UniProt Q9Y5U5 26-162, looked up)
chain: QRPTGGPGCGPGRLLLGTGTDARCCRVHTTRCCRDYPGEECCSEWDCMCVQPEFHCGDPCCTTCRHHPCPPGQGVQSQGKFSFGFQCIDCASGTFSGGHEGHCKPWTDCTQFGFLTVFPGNKTHNAVCVPGSPPAEP
notes: as for B2

- binding result [3]: no binding
B10: Fc-fusion form of the extracellular domain of DcR1 (Fc fusion, UniProt O14798 26-221, looked up)
chain: ATTARQEEVPQQTVAPQQQRHSFKGEECPAGSHRSEHTGACNPCTEGVDYTNASNNEPSCFPCTVCKSDQKHKSSCTMTRDTVCQCKEGTFRNENSPEMCRKCSRCPSGEVQVSNCTSWDDIQCVEEFGANATVETPAAEETMNTSPGTPAPAAEETMNTSPGTPAPAAEETMTTSPGTPAPAAEETMTTSPGTPA
notes: as for B2
